{"source": "patent US20040248787A1", "biological_target": "normal MITF (M type), expressed from plasmid pSU063 (MITF-M/pCDNA3) in COS7 cells (UniProt Q08874)", "sequence (Q08874 other isoform, or with tags, fused parts or gaps limits assumed)": "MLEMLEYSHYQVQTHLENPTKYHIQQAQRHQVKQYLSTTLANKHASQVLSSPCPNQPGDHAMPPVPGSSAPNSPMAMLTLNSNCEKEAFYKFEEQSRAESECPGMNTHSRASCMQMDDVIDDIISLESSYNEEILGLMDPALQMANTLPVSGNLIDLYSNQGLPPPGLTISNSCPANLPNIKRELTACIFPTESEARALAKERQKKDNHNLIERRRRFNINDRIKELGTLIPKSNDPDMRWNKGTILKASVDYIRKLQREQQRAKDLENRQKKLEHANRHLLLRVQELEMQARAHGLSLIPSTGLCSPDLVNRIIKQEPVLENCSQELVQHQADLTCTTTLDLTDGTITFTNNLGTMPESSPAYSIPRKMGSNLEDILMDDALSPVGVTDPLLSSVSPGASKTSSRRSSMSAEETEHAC", "assay": "cell-based or functional assay", "data": [{"substance": "His Tag-PTD-wh variant of MITF (from UniProt Q08874 119-526)", "values": [{"measurement": "Luciferase activity (c-kit promoter R-luc reporter in COS7 cells, PBS addition taken as 1) (relative to PBS = 1)", "value": 0.72}]}, {"substance": "His Tag-PTD-mi variant of MITF (from UniProt Q08874 119-526)", "values": [{"measurement": "Luciferase activity (c-kit promoter R-luc reporter in COS7 cells, PBS addition taken as 1) (relative to PBS = 1)", "value": 0.92}]}]}
